Patent US6127149

Target: cultured cells CH3/10T1/2 clone 8 (product of Dainippon Pharmaceutical Co., Ltd.)
Assay: adhesion of cells to coated dish (10 ug/cm^2), 1 hour, DNA of attached cells by spectrophotometer

absorbance (OD at 260 nm) of attached cells: 0.33 OD at 260 nm
B1: invariant modified epimorphin fragment: fragment (2) of mouse epimorphin (Examples 10 to 12) (protein)
chain: NGNRTSVDLRIRRTQHSVLSRKFVDVMTEYNEAQILFRERSKGRIQRQLEITGRTTTDDELEEMLESGKPSIFISDIISDSQIT
